Assay [1] deals with T1, biotinylated-soluble human LAG-3-Fc fusion protein (human, UniProt P18627 23-450, biotinylated (site not stated)).
T1 construct: whole entry named; also called shLAG-3; shLAG-3-Fc; not shown: Fc
T1 sequence: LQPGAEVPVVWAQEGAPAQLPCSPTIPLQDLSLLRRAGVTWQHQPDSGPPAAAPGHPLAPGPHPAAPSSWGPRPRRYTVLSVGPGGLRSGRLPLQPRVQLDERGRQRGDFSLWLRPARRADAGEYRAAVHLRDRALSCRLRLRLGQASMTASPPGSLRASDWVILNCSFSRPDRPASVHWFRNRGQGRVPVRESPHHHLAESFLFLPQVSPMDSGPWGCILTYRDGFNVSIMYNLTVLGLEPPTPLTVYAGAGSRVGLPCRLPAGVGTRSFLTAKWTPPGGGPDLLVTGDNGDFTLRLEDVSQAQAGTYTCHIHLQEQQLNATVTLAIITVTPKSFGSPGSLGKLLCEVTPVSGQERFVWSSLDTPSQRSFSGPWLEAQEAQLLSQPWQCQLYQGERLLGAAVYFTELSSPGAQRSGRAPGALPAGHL
Briefly: FACS: inhibition of shLAG-3-Fc binding to MHC II on Daudi cells (column head prints EC50); SM; SD 0.1900. On the technique in general: In flow cytometry, cells or beads pass a laser one at a time.

The target in assay [2] is T2, human LAG-3 expressed on NSO cells (human, UniProt P18627 29-525).
T2 sequence: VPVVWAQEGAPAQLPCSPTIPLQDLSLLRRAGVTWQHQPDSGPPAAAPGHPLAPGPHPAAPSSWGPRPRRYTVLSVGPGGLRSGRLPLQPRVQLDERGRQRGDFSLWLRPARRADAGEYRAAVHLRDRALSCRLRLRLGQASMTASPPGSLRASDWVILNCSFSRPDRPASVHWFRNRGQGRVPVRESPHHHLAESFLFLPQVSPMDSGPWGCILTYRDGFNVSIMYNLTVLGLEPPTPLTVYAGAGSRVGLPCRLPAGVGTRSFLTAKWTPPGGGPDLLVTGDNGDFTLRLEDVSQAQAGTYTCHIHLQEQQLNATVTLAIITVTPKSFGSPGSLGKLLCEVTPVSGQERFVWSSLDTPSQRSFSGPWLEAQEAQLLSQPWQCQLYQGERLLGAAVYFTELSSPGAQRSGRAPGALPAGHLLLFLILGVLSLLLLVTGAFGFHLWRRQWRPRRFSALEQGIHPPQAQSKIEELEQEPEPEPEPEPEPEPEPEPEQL
Nature of the assay: FACS saturation binding to NSO cells expressing LAG-3; SM; SD 0.1376.

For assay [3], the target named is T1, biotinylated-soluble human LAG-3-Fc …. Nature of the assay: FACS: inhibition of shLAG-3-Fc binding to MHC II on Daudi cells (column head prints EC50); SM; SD 0.3407.
Assay [4] concerns the target T2, human LAG-3 expressed on NSO cells. Nature of the assay: FACS saturation binding to NSO cells expressing LAG-3; SM; SD 0.1660.
Assay [5] addresses T3, human PD-1 expressed on the surface of cells (NSO cells expressing human PD-1; MNFAT-luc2/PD-1 Jurkat cells) (human, UniProt Q15116 21-288).
T3 construct: also called cell surface PD-1; PDCD1 transfected NSO cells expressing PD-1
Nature of the assay: FACS: inhibition of sPD-L2 binding to PD-1 on NSO cells; SM; SD 0.5438.

Assay [6] has as its target T1, biotinylated-soluble human LAG-3-Fc …. Briefly: FACS: inhibition of shLAG-3-Fc binding to MHC II on Daudi cells (column head prints EC50); SM; SD 0.0571.
Assay [7] concerns the target T3, human PD-1 expressed on the surface of …. Nature of the assay: FACS: inhibition of sPD-L1 binding to PD-1 on NSO cells; SM; SD 0.3097.
Assay [8] concerns the target T1, biotinylated-soluble human LAG-3-Fc …. Nature of the assay: FACS: inhibition of shLAG-3-Fc binding to MHC II on Daudi cells (column head prints EC50); SM; SD 0.2176.
Assay [9] has as its target T2, human LAG-3 expressed on NSO cells. Briefly: FACS saturation binding to NSO cells expressing LAG-3; SM; SD 0.1969.
Assay [10] has the same target. Nature of the assay: FACS saturation binding to NSO cells expressing LAG-3; SM; SD 0.3430.
The target in assay [11] is T1, biotinylated-soluble human LAG-3-Fc …. Nature of the assay: FACS: inhibition of shLAG-3-Fc binding to MHC II on Daudi cells (column head prints EC50); SM; SD 0.1409.

T3 sequence (Q15116 21-288): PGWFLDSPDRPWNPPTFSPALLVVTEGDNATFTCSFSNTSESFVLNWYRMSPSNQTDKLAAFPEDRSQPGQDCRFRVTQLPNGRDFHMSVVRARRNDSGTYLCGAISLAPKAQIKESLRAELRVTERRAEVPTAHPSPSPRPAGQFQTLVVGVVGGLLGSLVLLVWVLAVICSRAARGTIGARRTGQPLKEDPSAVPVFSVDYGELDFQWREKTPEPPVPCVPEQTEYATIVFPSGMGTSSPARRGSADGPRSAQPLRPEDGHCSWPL

B1: LAG-3 mAb A IgG4 (P) (antibody, V domains shown)
VH: QVQLQQWGAGLLKPSETLSLTCAVYGGSFSDYYWNWIRQPPGKGLEWIGEINHNGNTNSNPSLKSRVTLSLDTSKNQFSLKLRSVTAADTAVYYCAFGYSDYEYNWFDPWGQGTLVTVSS
VL: EIVLTQSPATLSLSPGERATLSCRASQSISSYLAWYQQKPGQAPRLLIYDASNRATGIPARFSGSGSGTDFTLTISSLEPEDFAVYYCQQRSNWPLTFGQGTNLEIK
notes: IgG4 (P); also called 25F7
Consider B1, for which the IC50 in assay [1] was 701 nM. The molecule further gave a concentration giving a half-maximal response (EC50) in [2] of 597 nM.

B2: LAG-3 mAb A IgG1 (AA) (antibody, V domains shown)
VH: QVQLQQWGAGLLKPSETLSLTCAVYGGSFSDYYWNWIRQPPGKGLEWIGEINHNGNTNSNPSLKSRVTLSLDTSKNQFSLKLRSVTAADTAVYYCAFGYSDYEYNWFDPWGQGTLVTVSS
VL: EIVLTQSPATLSLSPGERATLSCRASQSISSYLAWYQQKPGQAPRLLIYDASNRATGIPARFSGSGSGTDFTLTISSLEPEDFAVYYCQQRSNWPLTFGQGTNLEIK
notes: IgG1 (AA)
As for B2, in assay [3], the IC50 came to 592 nM. The molecule also showed an EC50 in [4] of 452 nM.

B3: BSAB A (bispecific antibody)
heavy 1: QVQLVQSGAEVKKPGASVKVSCKASGYSFTSYWMNWVRQAPGQGLEWIGVIHPSDSETWLDQKFKDRVTITVDKSTSTAYMELSSLRSEDTAVYYCAREHYGTSPFAYWGQGTLVTVSSASTKGPSVFPLAPSSKSTSGGTAALGCLVKDYFPEPVTVSWNSGALTSGVHTFPAVLQSSGLYSLSSVVTVPSSSLGTQTYICNVNHKPSNTKVDKRVEPKSCEKTHTCPECPAPEAAGGPSVFLFPPKPKDTLMISRTPEVTCVVVDVSHEDPEVKFNWYVDGVEVHNAKTKPREEQYNSTYRVVSVLTVLHQDWLNGKEYKCKVSNKALPAPIEKTISKAKGQPREPQVYTLPPSREEMTKNQVSLTCEVKGFYPSDIAVEWESNGQPENNYKTTPPVLDSDGSFFLYSKLTVDKSRWQQGNVFSCSVMHEALHNHYTQKSLSLSPG
light 1: EIVLTQSPATLSLSPGERATLSCRASESVDNYGMSFMNWFQQKPGQPPKLLIHAASNQGSGVPSRFSGSGSGTDFTLTISSLEPEDFAVYFCQQSKEVPYTFGGGTKVEIKRTVAAPSVFIFPPSDEQLKSGTASVVCLLNNFYPREAKVQWKVDNALQSGNSQESVTEQDSKDSTYSLSSTLTLSKADYEKHKVYACEVTHQGLSSPVTKSFNRGEC
heavy 2: QVQLVQSGAEVKKPGASVKVSCKASGYTFTNYGMNWVRQAPGQGLEWMGWINTYTGESTYADDFEGRFVFSMDTSASTAYLQISSLKAEDTAVYYCARESLYDYYSMDYWGQGTTVTVSSASTKGPSVFPLAPSSKSTSGGTAALGCLVKDYFPEPVTVSWNSGALTSGVHTFPAVLQSSGLYSLSSVVTVPSSSLGTQTYICNVNHKPSNTKVDKRVEPKSCRKTHTCPRCPAPEAAGGPSVFLFPPKPKDTLMISRTPEVTCVVVDVSHEDPEVKFNWYVDGVEVHNAKTKPREEQYNSTYRVVSVLTVLHQDWLNGKEYKCKVSNKALPAPIEKTISKAKGQPREPQVYTLPPSREEMTKNQVSLTCLVKGFYPSDIAVEWESNGQPENNYKTTPPVLDSDGSFFLYSRLTVDKSRWQQGNVFSCSVMHEALHNHYTQKSLSLSPG
light 2: DIVMTQTPLSLSVTPGQPASISCKSSQSLLHSDAKTYLNWLLQKPGQPPERLIYLVSELDSGVPDRFSGSGSGTDFTLKISRVEAEDVGVYYCWQGTHFPYTFGGGTKVEIKRTVAAPSVFIFPPSDEQLKSGTASVVCLLNNFYPREAKVQWKVDNALQSGNSQESVTEQDSKDSTYSLSSTLTLSKADYEKHKVYACEVTHQGLSSPVTKSFNRGEC
For B3, the IC50 in assay [5] worked out at 4880 nM; in [6] it was 710 nM; in [7] it was 2160 nM.

B4: hLAG-3 mAb 1 (1.4) IgG4 (P) (antibody, V domains shown)
VH: QVQLVQSGAEVKKPGASVKVSCKASGYTFTNYGMNWVRQAPGQGLEWMGWINTYTGESTYADDFEGRFVFSMDTSASTAYLQISSLKAEDTAVYYCARESLYDYYSMDYWGQGTTVTVSS
VL: DIVMTQTPLSLSVTPGQPASISCKSSQSLLHSDAKTYLNWLLQKPGQPPERLIYLVSELDSGVPDRFSGSGSGTDFTLKISRVEAEDVGVYYCWQGTHFPYTFGGGTKVEIK
With B4, the IC50 in [8] was determined as 482 nM. The EC50 in assay [9] came out at 1010 nM.

B5: hLAG-3 mAb 1 (1.4) IgG1 (AA) (antibody, V domains shown)
VH: QVQLVQSGAEVKKPGASVKVSCKASGYTFTNYGMNWVRQAPGQGLEWMGWINTYTGESTYADDFEGRFVFSMDTSASTAYLQISSLKAEDTAVYYCARESLYDYYSMDYWGQGTTVTVSS
VL: DIVMTQTPLSLSVTPGQPASISCKSSQSLLHSDAKTYLNWLLQKPGQPPERLIYLVSELDSGVPDRFSGSGSGTDFTLKISRVEAEDVGVYYCWQGTHFPYTFGGGTKVEIK
B5: the EC50 in assay [10] was determined as 607 nM. In [11], this molecule showed an IC50 of 364 nM.

A word on the IC50: it is the concentration that inhibits the measured activity by half. Read a high IC50 as weaker potency. Usually EC50 stands for the midpoint of the concentration-response curve.

For the origin of these results see patent publication US12534531 (MacroGenics, dated 2026).
